B1: VG9B21 (antibody, human IgG1, kappa, V domains shown)
VH: EVQLLESGGGLVKPGGSLRLSCAASGFSFSNYDMNWVRQAPRKGLEWVSSISSSSHYIYYADSLKGRFTISRDNAKNSLFLQMNSLRAEDTAVYYCARDRGVTTDYYYYALDVWGQGTMVTVSS
VL: DIVMTQSPSSLSASVGDRVTITCRASQGIYNYLAWYQQKPGNVPKLLIYAASTLQSGVPSRFSGSGSGTDFSLTISSLQPEDFTTYYCQKYNRAPFTFGPGTKVDIKR
B2: VG9B162 (antibody, human IgG1, lambda, V domains shown)
VH: QVQLVESGAEVTKPGASVKVSCKASGYTFTGDYMHWVRQAPGQGLEWMGWINPNSGYTNYAQKFQGRVTMTRDTSISTAYMELSRLRSDDTAVYYCAREGDAFDVWGQGTMVTVSS
VL: QLVLTQSSSASGSPGQSVTISCTGTSSDVGGYNYVSWYQQHPGKAPKLMIYEVSKRPSGVPDRFSGSKSGNTASLTVSGLQAEDEADYYCNSYAGSNNFEVFGGGTKLTVLG
B3: VG9B64 (antibody, human IgG1, kappa, V domains shown)
VH: QVQLVESGPTLVKPTQTLTLTCTFSGFSLSISGVSVGWIRQPPGKALEWLALIYWNDDKRYSPSLQSRVTITKDTSKNQVVLTVTNMDSVDTATYYCVHSGQWLEGDAFDIWGQGTMVTVSS
VL: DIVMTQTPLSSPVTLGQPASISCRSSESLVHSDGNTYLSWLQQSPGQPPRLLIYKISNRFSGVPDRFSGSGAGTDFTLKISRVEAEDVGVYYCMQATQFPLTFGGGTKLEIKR
B4: VG9B57 (antibody, human IgG1, kappa, V domains shown)
VH: EVQLVESGGGLVKPGGSLRLSCAASGFTFSSHDMNWVRQAPGKGLGWVSSISSSSSYIFYADSVKGRFTISRDNAKNSLYLQMSSLRAEDTAVYYCARDLGVGVRDYYYYGMDVWGQGTMVTVSS
VL: DIQMTQSPSAMSASVGDRVTITCRASQDITNYLAWFQQKPGKVPKRLIYAASSLQGGVPSRFSGSGSGTEFTLTISSLQPEDFSTYYCLQHDTYPYTFGQGTKLEIKR
B5: VG9B32 (antibody, human IgG1, kappa, V domains shown)
VH: EVQLVQSGGDLLQPGGSLRLSCAASGFTFSRYAMNWVRQAPGKGLEWVSFISGTGYTVYYADSVKGRFTISRDNAKNSLYLQMNSLRDEDTAVYYCARDQEPGFDYWGQGTLVTVSS
VL: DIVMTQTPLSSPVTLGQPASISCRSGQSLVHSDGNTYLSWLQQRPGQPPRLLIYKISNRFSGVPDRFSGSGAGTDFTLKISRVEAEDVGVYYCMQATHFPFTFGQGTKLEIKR
B6: VG9B152 (antibody, human IgG1, lambda, V domains shown)
VH: EVQLVESGGGLVRPGGSLRLSCEASGFTFSSYSMIWVRQAPGKGLEWVSSISSSSDYIYNADSVKGRFTISRDNAKNSLYLQMNSLRAEDTAVYYCARDWELLGFDCWGQGTTVTVSS
VL: SYELMQPPSVSVSPGQTASITCSGDKLGDKYACWYQQKPGQSPVLVIYQHNKRPSGIPERFSGSNSGKTATLTISGTQAMDEADYYCQAWDSTTVVFGGGTKLTVLG
B7: VG9B33 (antibody, human IgG1, kappa, V domains shown)
VH: EVQLVESGGGLVKPGGSLRLSCAASGFTFSSYNMNWVRQAPGKGLEWVSSISTSSSYIYYADSVKGRFTISRDNAKNSLYLQMNGLRAEDTAVYYCARDTSVTKYPDTFDIWGQGTMVTVSS
VL: DIVMTQSPSSLSASVGDRVTITCRASQDINNYLAWFQQKPGKVPNLLIYGASTLQSGVPSRFTGSGSGTDFTLTISSLQPEDVATYYCQKYNSAPFTFGPGTKVDIKR
B8: VG9B60 (antibody, human IgG1, kappa, V domains shown)
VH: QVQLVQSGAEVKKPGASVKVSCKASGYTFTGYYMHWVRQAPGQGLEWMGRINPNSGVTHYAQKFQGRVTMTRDTSISTAYMELSRLRSDDTAVYYCARGGSLVRGVISGLDYWGQGTTVTVSS
VL: DIVMTQSPGTLSLSPGERATLSCRASQSFSGSYLAWYQQKPGQAPSLLIYGASSRATGIPDRFSGSGSGTDFTLTISRLEPEDFALYYCQQYGSSPPYTFGQGTKVEIKR
B9: VG9B66 (antibody, human IgG1, kappa, V domains shown)
VH: EVQLVESGGGLVKPGGSLRLSCAASGFTFSTYTMNWVRQAPGKGLEWVSSISSSSFYMDYADSVKGRFTISRDNAKNSLSLLMNSLRAEDTAVYYCARDGDIVATIRGSFDYWGQGTMVTVSS
VL: EIVLTQSPSSLSTSVGDRVTITCRASQDITNFLAWYQQKPGKLPKLLIYTASTLQSGVPSRFSGSASGPDFTLTISSLQPEDVATYYCQKYNSAPFTFGPGTKVEIKR
B10: VG9B409 (antibody, human IgG1, kappa, V domains shown)
VH: EVQLVESGAEVKKPGASVKVSCKASGYTLTSYYMHWVRQAPGQGLEWMGIINPSGGSTSYAQKFQGRVTMTRDTSTSTVYMELSSLRSEDTAVYYCARGSYGWYFDLWGRGTLVTVSS
VL: EIVLTQSPGTLSLSPGERATLSCRASQSVTSSYLAWYQQKPGQTPRLLIYGASSRATGIPDRISGSGSGTDFTLTVSRLEPEDFAVYYCQQYGSSPPYTFGQGTKLEIKR
B11: VG9B128 (antibody, human IgG1, kappa, V domains shown)
VH: EVQLVESGGGVVQPGKSLRLSCTASGFTFGTYGMHWVRQAPGKGLDWVAVIWYNGSNKYYADSVKGRFTISRDNSKNTLYLQMNSLRTEDTAVYYCARGGFGESFDSWGQGTLVTVSS
VL: DIVMTQTPATLSLSPGERATLSCRASQSVIDYLAWFQQKPGQAPRLLIYDASNRATGIPARFSGSGSGTDFTLTISSLEPEDFAVYYCQQRSNWPLTFGGGTKVEIKR
B12: VG9B137 (antibody, human IgG1, kappa, V domains shown)
VH: EVQLVESGGGLVKPGGSLRLSCAAFGITFSSYSMDWVRQAPGRGLEWVSSIGSSSSYIFYADSVKGRFTISRDNAKNSLYLQMNSLRAEDTAVYYCATSYSWNYGGAFDIWGQGTMVTVSS
VL: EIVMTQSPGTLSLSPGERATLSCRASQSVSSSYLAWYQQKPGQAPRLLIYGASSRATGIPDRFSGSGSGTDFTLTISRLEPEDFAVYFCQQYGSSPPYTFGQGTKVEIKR
B13: VG9B127 (antibody, human IgG1, kappa, V domains shown)
VH: QVQLVESGGGLVKPGGSLRLSCTASGFTFGAYTMNWVRQAPGKGLEWVSSISSSSSYIDFAESVKGRFTISRDNAKNSLYLQMISLRAEDTAVYYCARDGDIVSTIRGSFDYWGQGALVTVSS
VL: EIVMTQSPLSLPVTPGEPASISCRSSQSLLDSDDGNTYLDWYLQKPGQSPQLLIYTLSYRASGVPDRFSGSGSGTDFTLKISRVEAEDVGIYYCMQRIEFPITFGQGTKVEIKR
B14: VG9B135 (antibody, human IgG1, kappa, V domains shown)
VH: QVTLKESGPTLVTPSQTLTLTCTFSGFSLTTYGVGVGWIRQPPGKALEWLALIYWNDDKRYYPSLNNRLTITKDTSKHLVVLTLTNMDPVDTATYYCAHDYDFWSGYFDYWGQGTLVTVSS
VL: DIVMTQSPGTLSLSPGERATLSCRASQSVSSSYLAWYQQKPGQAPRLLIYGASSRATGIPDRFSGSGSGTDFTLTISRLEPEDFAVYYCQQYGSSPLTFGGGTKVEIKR
B15: VG9B129 (antibody, human IgG1, kappa, V domains shown)
VH: EVQLVQSGAEVKKPGSSVKVSCKASGGTFSSYVISWVRQAPGQGLEWMGGILPILSTANYAQKFQGRVTITADKSTSTAYMELSSLRSEDTAVYYCARAHDYYYGMDVWGQGTTVTVSS
VL: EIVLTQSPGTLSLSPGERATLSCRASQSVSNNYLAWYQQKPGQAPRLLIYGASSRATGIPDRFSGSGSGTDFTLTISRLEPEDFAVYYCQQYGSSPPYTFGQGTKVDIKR
notes: also called antibody #59
B16: VG9B396 (antibody, human IgG1, lambda, V domains shown)
VH: EVQLVESGPGLVQPSETLSLTCTVSGDSIRGYYWNWIRQPAGKGLEWIGRIFTTGNTNYNPSLKSRLTMSLDTSKNQFSLKLNSVTAADTAVYYCAREKWDSSSSALYFDFWGQGTLVTVSS
VL: QSVLTQAPSVSGAPGQRVTISCTGSSSNIGADYDVKWYQQLPGTAPKLLIYGNTDRPSGVPDRFSGSKSGTSASLAITGLQAEDEADYYCQSYDSRLTGYVVFGGGTKLTVLG
notes: also called antibody #60
B17: VG9B411 (antibody, human IgG1, kappa, V domains shown)
VH: EVQLVESGGGLVKPGGSLRLSCSASGFTFSNYDMNWVRQAPGKGLEWVSSISSSSSYIYYADSVKGRFTISRDNAKNSLYLQMNSLRAEDTAVYHCARDVGVTTDYYYYGMDVWGQGTTVTVSS
VL: EIVMTQSPSSVSASVGDRVTITCRASQGINSWLAWYQQDPYKAPKLLIYAASTLQSGVPSRFGGRGSGTEFTLTISSLQPEDFAVYYCQQYNNWPRTFGQGTKVDIKR
notes: also called antibody #58

These binders were tested against T1, γδ T cell receptor on human γδ T cells (human) (assay: flow cytometry, dose-response binding at 37° C. on human γδ T cells).
T1 construct: Mixed population of primary cells; also called AG000003021 (γδ T cells)
Experimental: (§1) Binding of antibodies to human γδ T cells or SKW cell lines expressing Vγ9/Vδ2, Vγ9/Vδ2 or Vγ5/Vδ2 was carried out by flow cytometry. Briefly, the cells were centrifuged at 300×g for 5 minutes and the pellet was resuspended in 34 ml fresh media (in RPMI+10% FBS). 50 μL of the cells were then plated (44K cells/well) into assay plates. Samples were incubated for one hour at 37° C. in tissue culture (TC) incubator followed by wash steps by adding 100 μl FACS staining buffer. Secondary detention antibodies (A647 conjugated anti-human IgG Fc specific antibody (2 μg/mL) along with AF488 anti mouse CD3, clone OKT3 at 1 ug/mL) were added at 50 μL/well to appropriate wells according to the plate map. After incubating for 60 minutes at 37° C. in the TC incubator, cells were again washed as described above. This is followed by resuspension in 20 μL/well running buffer containing 1:1000 dilution of Sytox blue dead cell stain and the plates were run on iQue Screener.
(§2) Gating and data analysis: Human anti-human Vγ9 antibody (VG9B2 mAb at 10 nM) was used to mark the gating of positive population. All cells were first gated for singlets on SCS-A vs. SCS-H dot plot, live/dead followed by CD3 positive population, and this subset of CD3 positive population was gated for Vγ9 positive binding using positive control mAb. Cells were also assessed for cell binding of control mAbs by RL1 (A647) Geomeans from the live cell population. Advanced metrics were used and normalization metrics were chosen to calculate fold over background wells containing secondary antibody alone (designated as ‘background’ within ForeCyt settings).

Max. Activity | Binder
1670 fold over background | B1
1860 fold over background | B2
1690 fold over background | B3
1210 fold over background | B4
1210 fold over background | B5
1850 fold over background | B6
2090 fold over background | B7
567 fold over background | B8
1220 fold over background | B9
411 fold over background | B10
1480 fold over background | B11
2200 fold over background | B12
2230 fold over background | B13
577 fold over background | B14

What follows are binders tested against T2, γδ T cell receptor on human γδ T cells (human) (assay: flow cytometry, dose-response (DRC) binding at 37°C on human γδ T cells).
T2 construct: also called AG000003021 (γδ T cells)
Experimental: as §1, §2

Max. Activity | Binder
271 fold over background | B15
4540 fold over background | B16
396 fold over background | B17
